The values that follow come from patent US20100291108A1 (published 2010).

The target of test [1] is T1, IREM-1Δ6 deletion construct (human).
T1 construct: Deletion construct of IREM-1 expressed in 293 cells
T1 chain: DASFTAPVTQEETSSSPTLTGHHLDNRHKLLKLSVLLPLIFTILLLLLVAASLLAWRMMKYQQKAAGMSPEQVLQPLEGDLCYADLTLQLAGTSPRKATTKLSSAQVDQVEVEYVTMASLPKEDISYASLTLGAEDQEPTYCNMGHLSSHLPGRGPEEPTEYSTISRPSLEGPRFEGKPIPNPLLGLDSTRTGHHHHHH
In words: flow cytometry on 293 cells expressing the construct.

The target in test [2] is IREM-1Δ1 deletion construct (human). The description is as above.
The target of test [3] is T2, IREM-1Δ2 deletion construct (human).
T2 construct: Deletion construct of IREM-1 expressed in 293 cells
T2 chain: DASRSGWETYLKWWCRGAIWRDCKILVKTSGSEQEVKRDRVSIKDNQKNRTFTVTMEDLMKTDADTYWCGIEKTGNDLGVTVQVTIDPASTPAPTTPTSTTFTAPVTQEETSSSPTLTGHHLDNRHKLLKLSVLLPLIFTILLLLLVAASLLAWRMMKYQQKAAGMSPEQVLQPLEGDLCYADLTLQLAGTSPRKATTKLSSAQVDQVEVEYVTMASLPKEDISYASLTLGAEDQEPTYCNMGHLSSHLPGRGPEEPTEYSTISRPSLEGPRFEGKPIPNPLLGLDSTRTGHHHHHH
The test is described as above.

Test [4] has as its target T3, IREM-1Δ3 deletion construct (human).
T3 construct: Deletion construct of IREM-1 expressed in 293 cells
T3 chain: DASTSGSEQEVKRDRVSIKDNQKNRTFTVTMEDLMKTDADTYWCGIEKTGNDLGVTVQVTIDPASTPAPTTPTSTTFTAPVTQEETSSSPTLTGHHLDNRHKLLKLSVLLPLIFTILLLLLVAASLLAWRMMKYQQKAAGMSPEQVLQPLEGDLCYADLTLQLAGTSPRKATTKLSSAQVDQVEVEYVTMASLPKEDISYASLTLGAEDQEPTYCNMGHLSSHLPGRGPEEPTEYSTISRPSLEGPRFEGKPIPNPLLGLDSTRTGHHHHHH
The test is described as above.

Test [5] has as its target T4, IREM-1Δ4 deletion construct (human).
T4 construct: Deletion construct of IREM-1 expressed in 293 cells
T4 chain: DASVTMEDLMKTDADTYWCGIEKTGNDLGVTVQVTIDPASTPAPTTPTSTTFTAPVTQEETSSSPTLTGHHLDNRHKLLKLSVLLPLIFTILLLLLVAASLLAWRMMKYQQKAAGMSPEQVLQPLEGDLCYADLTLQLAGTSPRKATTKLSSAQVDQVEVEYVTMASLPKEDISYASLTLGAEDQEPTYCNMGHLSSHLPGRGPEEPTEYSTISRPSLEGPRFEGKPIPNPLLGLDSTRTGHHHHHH
The description is as above.

Test [6] concerns the target T5, IREM-1Δ5 deletion construct (human).
T5 construct: Deletion construct of IREM-1 expressed in 293 cells
T5 chain: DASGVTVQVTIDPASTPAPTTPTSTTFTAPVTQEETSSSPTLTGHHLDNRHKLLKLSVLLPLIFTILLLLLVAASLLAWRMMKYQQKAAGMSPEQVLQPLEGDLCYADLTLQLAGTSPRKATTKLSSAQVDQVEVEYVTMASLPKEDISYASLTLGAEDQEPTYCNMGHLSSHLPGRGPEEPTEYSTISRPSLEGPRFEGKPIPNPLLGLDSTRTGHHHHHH
Described as above.

Test [7] has as its target T6, IREM-1-ECD-V5His recombinant protein (human, UniProt Q8TDQ1 20-156).
T6 construct: Produced in HEK-293 cells and purified on a Ni column; also called IREM-1 V5-6His protein; recombinant IREM-1 protein containing the complete extracellular domain; not shown: C-terminal V5-His tag
In words: SPR (Biacore), mAb captured on the chip, antigen in solution, 25 C.

Test [8] addresses T6, IREM-1-ECD-V5His recombinant protein. In words: SPR (Biacore), mAb captured on the chip, antigen in solution, 25 C; KD = kd/ka.
Method: Kinetic rate constants (kₐ and kd) were determined using surface plasmon resonance and affinities (KD) were then calculated from the rate constants (kd/kₐ). Surface plasmon resonance was carried out on a BlAcore system (Biacore International AB, Uppsala, Sweden). […] Each of 5 concentrations was tested twice except the highest concentration which was tested 5 times in total, two times with a short dissociation of 300 seconds followed by three times with a dissociation of 60 minutes. The data sets from the long dissociation experiments were globally fit with the shorter association experiments to determine binding constants for the interactions. The analysis was carried out in HBS, pH 7.4 buffer at 25° C.
In test [9] the target is human IREM-1 (full-length, on cells) (human, UniProt Q8TDQ1 20-290). Put plainly: cell-based or functional assay.

B1: chimeric anti-IREM-1 monoclonal antibody D12 (antibody, human IgG1, V domains shown)
VH: EIQLQQSGAELVRPGTSVKVSCKASGYAFTNYLIEWVKQRPGQGLEWIGVINPGSGGSYYNEKFKGKTTLTADKSSSTAYMQLSSLAFDDSAVYFCARSESNYSYYYAMDYWGQGTSVIVSS
VL: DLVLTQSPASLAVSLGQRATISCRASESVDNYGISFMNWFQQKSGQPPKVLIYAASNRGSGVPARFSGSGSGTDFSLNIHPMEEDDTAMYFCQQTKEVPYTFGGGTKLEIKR
notes: No cleavage site is stated; also called mAb D12; clone #D12
For the molecule B1, the binding result in test [1] was “no binding”; in [2], “binds”; in test [3], “no binding”; in test [4] it was “no binding”; in test [5], “no binding”; in test [6], “no binding”. Further, the koff in [7] came to 0.00072 s⁻¹. Besides, in test [7], the kon was 255000 M⁻¹ s⁻¹. Further, in [8], the Kd was 2.8 nM.

B2: chimeric anti-IREM-1 monoclonal antibody B11 (antibody, human IgG1, V domains shown)
VH: QIQLVQSGPELEKPGETVKISCKASGYTFTNYPMHWVKQAPGKGLKWMGWINTYSGVPTYADDFKGRFAFSLETSASTAYLQINNLKNEDMATYFCARMDYYSNGFNYWGQGTTLTVSS
VL: DVLMTQTPLSLPVSLGDQASISCRSSQSIVHSNGNTYLEWYLQKPGQSPKLLIYKVSNRFSGVPDRFSGSGSGTDFTLKISRVEAEDLGVYYCFQGSHVPWTFGGGTKLEIKR
notes: No cleavage site is stated; also called mAb B11; VL2VH2
On to B2, for which the binding result in [1] is reported as “no binding”; in test [2], “binds”; in test [3] it was “no binding”; in test [4], “no binding”; in test [5], “no binding”; in [6], “no binding”. The off-rate constant (koff) in test [7] was determined as 0.00066 s⁻¹. Besides, in [7], the association rate constant (kon) worked out at 282000 M⁻¹ s⁻¹. Also, in [8], the dissociation constant Kd turned out to be 2.3 nM.

B3: chimeric anti-IREM-1 monoclonal antibody 871.1 (antibody, human IgG1, V domains shown)
VH: EVKLVESGGGLVQPGGSLSLSCAASGFTFTDYYMSWVRQPPGMAPEWLGFIRNKANGYTTEYSASVKGRFTISRDDSQSILYLQMNALRAEDSATYYCAREDYGSSWGYYAMDCWGQGTSVTVSS
VL: DIVMTQSQKFMSTSVGDRVSVTCKASQNVDTNVAWYQQKPGQSPKALLYSASYRHSGVPDRFTGSGSETDFTLTITNVQSEDLAEYFCQQYNSFPLTFGSGTKLEIRR
notes: The CDC assays use an IgG2b isotype control, so the murine form may have been used there; No cleavage site is stated; also called mAb 871.1; VL1VH1
As for B3, the “CDC (complement-dependent cytotoxicity) EC50 on 293 cells expressing IREM-1” value in [9] was roughly 10 ng/mL. Also, the “CDC EC50 on AML cell line HL-60” value in [9] lay within 1970 to 3840 ng/mL. Besides, the “CDC EC50 on stage M1 AML patient sample” value in test [9] worked out at 0.0062 ng/mL. Also, the binding result in test [1] is on record as “no binding”; in test [2], “binds”; in test [3], “no binding”; in [4], “no binding”; in test [5], “no binding”; in test [6], “no binding”. In [7], the kon amounted to 228000 M⁻¹ s⁻¹.
